The assay deals with SARS-CoV-2 6P-mut7 spike protein (SARS-CoV-2) (UniProt P0DTC2). Put plainly: cryo-EM structure.

Take COVA2-15 Fab: the stoichiometry N (Fab per spike trimer) worked out at 3.

For the origin of these results see publication PMC11672753.
